B1: DCAF4 (parent)
chain: TTKCVRQYEGHVNEYAYLPLHVHE

Variants of: B1
Test: protein stability index of a GFP-peptide fusion (GPS, HEK-293T) (PSI 1-6); higher = more stable
Details: c terminus: a fixed tail appended
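Further: lentivirally expressed fusions sorted by FACS into six bins by GFP to DsRed ratio, PSI derived from sequencing read proportions per bin multiplied by bin number.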

| Variant | protein stability index |
| --- | --- |
| TTKCVRQGEGHVNEYAYLPLHVHE | 3.12 |
| VTKCVRQYEGHVNEYAYLPLHVHE | 2.22 |
| TTKCVRQYEGHVNERAYLPLHVHE | 3.43 |
| TTKCVRQYNGHVNEYAYLPLHVHE | 2.52 |
| TTKCVRQYFGHVNEYAYLPLHVHE | 1.76 |
| TTKCVRQYEGHVNEYAHLPLHVHE | 2.94 |
| TTKCVRQYEGHVNEYAGLPLHVHE | 3.37 |
| TTKCVQQYEGHVNEYAYLPLHVHE | 3.31 |
| TTKFVRQYEGHVNEYAYLPLHVHE | 2.25 |
| TTKCVRQYEGHVQEYAYLPLHVHE | 2.32 |
| TTKCVRQYEGHVNKYAYLPLHVHE | 2.64 |
| TTKCVRQYEGHVNEYAYLPLDVHE | 3.55 |
| TTKCVRQYEGHVNEYTYLPLHVHE | 2.82 |
| TTKCVRQYEEHVNEYAYLPLHVHE | 3.3 |
| TTKCVRQYEGHVNEYAYLPLHVHD | 2.84 |
| TTCCVRQYEGHVNEYAYLPLHVHE | 2.62 |
| TTKCVGQYEGHVNEYAYLPLHVHE | 2.58 |
| TTKCVRQYEGHVNEYEYLPLHVHE | 3.31 |
| TTKCVRQYEFHVNEYAYLPLHVHE | 1.66 |
| WTKCVRQYEGHVNEYAYLPLHVHE | 1.92 |
| TTKCVRQYEGHVNEYAYLPLHWHE | 2.61 |
| TTKCVRQYEGHVNEYAYVPLHVHE | 2.48 |
| TTKCVTQYEGHVNEYAYLPLHVHE | 2.49 |
| TTKCVRQYEGHVNEYAYLPHHVHE | 3 |

| Variant | protein stability index |
| --- | --- |
| TTKCVRQYEGHNNEYAYLPLHVHE | 2.98 |
| TTKCVRQYEGHVNEYCYLPLHVHE | 2.44 |
| TTKCVRQYEGHVNEYAYLPLFVHE | 1.87 |
| TTKCVRQYEGHVNELAYLPLHVHE | 2.97 |
| TTKCVRQYEGHVNEYAYLPLHVHQ | 2.29 |
| TTKCVRQYEGHVNEYAFLPLHVHE | 2.55 |
| TTKCVRQIEGHVNEYAYLPLHVHE | 2.82 |
| TTKCVRQYEGHVNEYARLPLHVHE | 3.06 |
| NTKCVRQYEGHVNEYAYLPLHVHE | 2.4 |
| TTKCVRQYEGHVNEGAYLPLHVHE | 3.84 |
| TTKCVRQYQGHVNEYAYLPLHVHE | 2.52 |
| TTKCVRQYEGHVNEYAYYPLHVHE | 2.38 |
| TTKCVRQCEGHVNEYAYLPLHVHE | 2.66 |
| TTKCVRQYEGHVNEYAYLPLHSHE | 3.24 |
| TTKCLRQYEGHVNEYAYLPLHVHE | 2.84 |
| TTKPVRQYEGHVNEYAYLPLHVHE | 3.1 |
| TTKCVRQYEGHVNEYAYLQLHVHE | 1.75 |
| TTKCVRQPEGHVNEYAYLPLHVHE | 2.42 |
| TTKCVRQYEGHVYEYAYLPLHVHE | 2.09 |
| TTKCVRWYEGHVNEYAYLPLHVHE | 1.88 |
| TTKCRRQYEGHVNEYAYLPLHVHE | 1.76 |
| TTKCVRQYEGHVCEYAYLPLHVHE | 2.35 |
| TTKCVRQYEGHVNSYAYLPLHVHE | 2.05 |
| TTKCVRQKEGHVNEYAYLPLHVHE | 3.52 |

| Variant | protein stability index |
| --- | --- |
| TTKCVRQYEGHVNEYFYLPLHVHE | 2.32 |
| TTKCCRQYEGHVNEYAYLPLHVHE | 2 |
| TTKCVRQYEGHVNECAYLPLHVHE | 3.56 |
| TTKCVRQYESHVNEYAYLPLHVHE | 2.69 |
| TTKCVRQYEGHVNEYAYLPLHVVE | 2.19 |
| TTKCVRQNEGHVNEYAYLPLHVHE | 3.31 |
| TTKCVRQYEGHVNEYAYLPLHVAE | 2.78 |
| MTKCVRQYEGHVNEYAYLPLHVHE | 2.19 |
| TTKCVRQYEKHVNEYAYLPLHVHE | 3.44 |
| TTKQVRQYEGHVNEYAYLPLHVHE | 2.94 |
| TTKCVRQYEGHVREYAYLPLHVHE | 2.31 |
| TTKCVRQYEGHVNEYAYLPLLVHE | 2.2 |
| TTKCVRQYEGHVNEYAYLPLHRHE | 2.58 |
| RTKCVRQYEGHVNEYAYLPLHVHE | 2.22 |
| TCKCVRQYEGHVNEYAYLPLHVHE | 2.43 |
| TTKCVRQYEGHVNEYAYLPLHAHE | 2.79 |
| TTKCVRQYEGHVNEYAYEPLHVHE | 3.58 |
| TTKCVRQYEGHVPEYAYLPLHVHE | 3.12 |
| TTKCVRPYEGHVNEYAYLPLHVHE | 2.06 |
| TTKCVRQYEGHVNEYAYLPAHVHE | 2.78 |
| TTKCVRQYEGHVNEYAILPLHVHE | 2.86 |
| FTKCVRQYEGHVNEYAYLPLHVHE | 1.74 |
| TTKCVRQYEGHVNEYAYLPLHVHS | 2.07 |
| TTKCVRQYEGHVNEYAYDPLHVHE | 3.8 |

| Variant | protein stability index |
| --- | --- |
| TTKCVRQYEGHVNEYDYLPLHVHE | 2.54 |
| TTKCVRQYEGKVNEYAYLPLHVHE | 2.66 |
| TTKCVRQYEGHVNEYAYHPLHVHE | 3.09 |
| TTKCQRQYEGHVNEYAYLPLHVHE | 2.55 |
| TTKCVRQYEGHVNEYAYLPLHVHH | 2.23 |
| TTKCVRQYEGHVNEAAYLPLHVHE | 3.57 |
| DTKCVRQYEGHVNEYAYLPLHVHE | 3.45 |
| TTFCVRQYEGHVNEYAYLPLHVHE | 1.55 |
| TTKCTRQYEGHVNEYAYLPLHVHE | 2.69 |
| TTKCVRQYEGHVNEYAYLPLWVHE | 1.75 |
| TTECVRQYEGHVNEYAYLPLHVHE | 3.58 |
| TTKCVRQYEGHVNEYAYLTLHVHE | 1.53 |
| TTKCVRQYEGHKNEYAYLPLHVHE | 3.33 |
| TTKCVRQYEGHVNEIAYLPLHVHE | 3.09 |
| TTKCVRQYEGHVNESAYLPLHVHE | 3.28 |
| TTKCVRQYEGTVNEYAYLPLHVHE | 3.25 |
| TTKCVRQYEGHVNEYAYLYLHVHE | 2.67 |
| TTKCVRQYEGHHNEYAYLPLHVHE | 2.71 |
| TTKCVRQYLGHVNEYAYLPLHVHE | 2.12 |
| TTKCVRQYEGPVNEYAYLPLHVHE | 3.25 |
| TTKCVRQYEGHVNEYGYLPLHVHE | 2.13 |
| TTKCVRQYEGHMNEYAYLPLHVHE | 2.86 |
| CTKCVRQYEGHVNEYAYLPLHVHE | 1.9 |
| TTKCVRQYDGHVNEYAYLPLHVHE | 3.04 |

| Variant | protein stability index |
| --- | --- |
| TTTCVRQYEGHVNEYAYLPLHVHE | 2.71 |
| TTKCVRQYEGHVNEYAYLPLHVGE | 2.76 |
| TTICVRQYEGHVNEYAYLPLHVHE | 1.73 |
| TTKCVRQYEGHVNEYAYLPDHVHE | 3.64 |
| TTKCVRQYEGHVNAYAYLPLHVHE | 1.85 |
| TTKCVRQYEGHVHEYAYLPLHVHE | 2.5 |
| TTKCVRQWEGHVNEYAYLPLHVHE | 2.42 |
| TTKCVRQYEGHDNEYAYLPLHVHE | 3.19 |
| TTKCVRQYEGHVNEYAYLPLMVHE | 2.46 |
| TTKCVRQYEGHVNEYAYLPLHVHV | 2.02 |
| TVKCVRQYEGHVNEYAYLPLHVHE | 2.46 |
| TTKCVRQYEGAVNEYAYLPLHVHE | 2.7 |
| TTKYVRQYEGHVNEYAYLPLHVHE | 2.48 |
| TTKCVRQYEGHVKEYAYLPLHVHE | 2.48 |
| TTKCVRQYEGHVNQYAYLPLHVHE | 2.35 |
| TTKCVEQYEGHVNEYAYLPLHVHE | 3.12 |
| TTKCVRQYEGHVNEYAYLPLHVEE | 3.21 |
| TTKEVRQYEGHVNEYAYLPLHVHE | 3.59 |
| TTKCVRQYEGHVNEYAYLPLHLHE | 2.54 |
| TTKMVRQYEGHVNEYAYLPLHVHE | 3.45 |
| TTKCVRQYEGHVNEYAYLPLHVCE | 2.52 |
| TTHCVRQYEGHVNEYAYLPLHVHE | 2.71 |
| TTRCVRQYEGHVNEYAYLPLHVHE | 2.12 |
| TTPCVRQYEGHVNEYAYLPLHVHE | 3.58 |

| Variant | protein stability index |
| --- | --- |
| TTKCVRQYEGHVNEYAYLPLVVHE | 2.25 |
| TTKCVPQYEGHVNEYAYLPLHVHE | 2.26 |
| TTKCVRQYEGIVNEYAYLPLHVHE | 2.75 |
| TTKCVRQYEGHVNEYAYWPLHVHE | 2.28 |
| TTKCVRQYEGHVNEYAYKPLHVHE | 2.76 |
| TTKCVRQYEGHVNEYAYLPLHVHC | 2.25 |
| TTKCVRYYEGHVNEYAYLPLHVHE | 1.79 |
| HTKCVRQYEGHVNEYAYLPLHVHE | 2.65 |
| TTKCVRQFEGHVNEYAYLPLHVHE | 2.69 |
| TTKCVVQYEGHVNEYAYLPLHVHE | 2.1 |
| TTKCHRQYEGHVNEYAYLPLHVHE | 2.19 |
| TTKCVRQYEGHVNEYAYLPLHVME | 2.12 |
| TTKCVRQYEGHVNEYAYLKLHVHE | 1.87 |
| TTKCVRQYEGHVNEYAKLPLHVHE | 2.96 |
| TTKCVRDYEGHVNEYAYLPLHVHE | 2.8 |
| TTKCVRQYEGHVNEYIYLPLHVHE | 2.2 |
| TTKCVRQYEGHVNEYAYLALHVHE | 1.89 |
| TTKCVRQYPGHVNEYAYLPLHVHE | 2.51 |
| TTKCVRQYAGHVNEYAYLPLHVHE | 2.29 |
| TTKCVRQYEGHVNEYVYLPLHVHE | 2.2 |
| ITKCVRQYEGHVNEYAYLPLHVHE | 2 |
| TTKCVRQYEGHVNEYAYLPEHVHE | 3.53 |
| TTMCVRQYEGHVNEYAYLPLHVHE | 2.07 |
| TTKCVRQYEGHVNEYAYLPVHVHE | 2.44 |

| Variant | protein stability index |
| --- | --- |
| TTKCVRQYEGHVNEYAYLPLHQHE | 3.3 |
| TTKCVRQYVGHVNEYAYLPLHVHE | 2.42 |
| TTKCVRQYEAHVNEYAYLPLHVHE | 2.37 |
| TTACVRQYEGHVNEYAYLPLHVHE | 3.11 |
| ETKCVRQYEGHVNEYAYLPLHVHE | 3.14 |
| TTKCVRQYEGHVNEYAYLPLHEHE | 3.65 |
| TTKCVRQYEGHVNEYAYLPIHVHE | 2.74 |
| TTKCVYQYEGHVNEYAYLPLHVHE | 2.4 |
| TTKSVRQYEGHVNEYAYLPLHVHE | 3.25 |
| TTKCVRQYEGHVNEYSYLPLHVHE | 2.45 |
| TTKCVRQYEGHVNEYAYLPLHVHW | 2.67 |
| TTKCVRQYEGHVAEYAYLPLHVHE | 2.64 |
| TTKCVRQYEGHVNLYAYLPLHVHE | 1.63 |
| TTKCVRQYEGHVNEYAYRPLHVHE | 2.89 |
| TTGCVRQYEGHVNEYAYLPLHVHE | 2.89 |
| TTKCVRQYEGEVNEYAYLPLHVHE | 3.17 |
| TTKCVRQYEGHVNEHAYLPLHVHE | 3.02 |
| TTKCVRQYEGHVNEYNYLPLHVHE | 2.6 |
| PTKCVRQYEGHVNEYAYLPLHVHE | 2.48 |
| TTKCVRQYEGHVNEYAYLPLTVHE | 2.8 |
| TTKWVRQYEGHVNEYAYLPLHVHE | 2.29 |
| TTKCVRQYYGHVNEYAYLPLHVHE | 1.97 |
| TTKCVRQYEGHVNEYASLPLHVHE | 3.24 |
| TTKCVRQLEGHVNEYAYLPLHVHE | 2.79 |

| Variant | protein stability index |
| --- | --- |
| TTKCVRQYEGHVNEYAYLILHVHE | 2.46 |
| TTKCVRQYEGHVNEYAYLPLHVHY | 1.89 |
| TTKCVRQYEMHVNEYAYLPLHVHE | 2.06 |
| TTLCVRQYEGHVNEYAYLPLHVHE | 2.6 |
| TTKCVRQYEGHVNEYAYLPLHVSE | 2.73 |
| TTKCVRQYEGQVNEYAYLPLHVHE | 2.53 |
| TTKCVRQYEGHVNEQAYLPLHVHE | 3.32 |
| TTKCVRQYEGHVNEYRYLPLHVHE | 2.6 |
| TTKCVRQYHGHVNEYAYLPLHVHE | 1.97 |
| TTKCVRQYEQHVNEYAYLPLHVHE | 2.24 |
| TSKCVRQYEGHVNEYAYLPLHVHE | 2.74 |
| TTKCVRQYEGHVNEYAYLPLNVHE | 3.33 |
| TTKCVRQYEGHVNEYAYLPLHVHT | 2.1 |
| TTKCVRQYEGHVNEYAYLPSHVHE | 3.13 |
| TTKCVRQYEVHVNEYAYLPLHVHE | 2.14 |
| TTKCVRQYEGHVNEYATLPLHVHE | 3.65 |
| TTKCVRQYEGCVNEYAYLPLHVHE | 2.1 |
| TTKCVRQYEGHVNEYADLPLHVHE | 4.01 |
| TTKCVRQYEGHVNEYAYLPCHVHE | 2.67 |
| TTKCVRQYEGHVNEYAYLPLHVHR | 2.18 |

— the supplement of paper PMC10567573
